Experimental data reported in patent US20220089678A1 (CARTESIAN THERAPEUTICS, published 2022).
Numbering of substitutions follows the chain as printed.

B1: CAR comprising scFv-1′ (SEQ ID NO: 62) (other)
chain: DIVLTQSPSSLSASVGDRATISCRASESVTILGSHLIHWYQQKPGQAPKLLIQLASNVQTGVPARFSGSGSGTDFTLTISSVEPEDVAVYYCLQSRTIPRTFGQGTKVEIKGSTSGSGKPGSGEGSTKGQIQLVQSGPELKKPGGSVKISCAASGYTFTSYDINWVRQAPGKGLEWVGWINTETREPAYAYDFRGRFTFSADTSKSTAYLQMNSLRAEDTAVYYCALDYSYAMDYWGQGTLVTVSS
notes: CAR on mRNA-electroporated human CD8+ T cells; Only the scFv is identified; not shown: rest of the CAR (hinge, transmembrane, cytoplasmic domains) not specified for this construct
B2: CAR comprising scFv-10′ (SEQ ID NO: 66) (other)
chain: B1 chain with D162S, Y191Q, D192G, R194T, S230L, A232S, M233L, Y235F
notes: as for B1
B3: CAR comprising scFv-8′ (SEQ ID NO: 64) (other)
chain: DIVLTQSPSSLSASVGDRATISCRASESVSFLGINLIHWYQQKPGQAPKLLIYSASNLQSGVPARFSGSGSGTDFTLTISSVEPEDVAVYYCLQSRTLPRTFGQGTKVEIKGSTSGSGKPGSGEGSTKGQIQLVQSGPELKKPGGSVKISCAASGYTFTDYSINWVRQAPGKGLEWVGWINTETREPAYAYDFRGRFTFSADTSKSTAYLQMNSLRAEDTAVYYCALDYSYAMDYWGQGTLVTVSS
notes: as for B1
B4: CAR comprising scFv-11′ (SEQ ID NO: 67) (other)
chain: B1 chain with E183N, R185G, E186N, A188T, Y191Q, D192G, R194T, S230T, A232G
notes: as for B1
B5: CAR comprising scFv-4′ (SEQ ID NO: 63) (other)
chain: B1 chain with S160D, D162S, S230T, A232G
notes: as for B1
B6: CAR comprising scFv-9′ (SEQ ID NO: 65) (other)
chain: B3 chain with R96K, T97N, L98F
notes: as for B1
B7: CAR comprising scFv-CAS2 (C2) (SEQ ID NO: 61) (other)
chain: DIVLTQSPASLAVSPGQRATISCRASESVTILGSHLIHWYQQKPGQPPKLLIQLASNVQTGVPARFSGSGSRTDFTLTISSLEPEDVAVYYCLQSRTIPRTFGQGTKVEIKGSTSGSGKPGSGEGSTKGQITLKESGPTLVKPTQTLTLSCKASGYTFTDYSINWVRRAPGKGLEWMGWINTETREPAYAYDFRGRFVFSLDTSVSMAYLQISSLKAEDTAVYYCALDYSYAMDYWGQGTLVTVSS
notes: as for B1
B8: CAR comprising scFv-J2 (SEQ ID NO: 50) (other)
chain: DIVLTQSPASLAVSLGERATISCRASESVSILGSHLLHWYQQKPGQPPKLLIYLASNLQTGVPARFSGSGSGTDFTLTISSLEAEDVAVYYCLQSRTIPRTFGQGTKLEIKGSTSGSGKPGSGEGSTKGQIQLVQSGAEVKKPGASVKISCKASGYTFTDYSINWVRQAPGQGLEWMGWINTETREPAYAYDFRGRVTMTRDTSASTAYLQISSLKAEDTAVYFCALDYSYAMDYWGQGSLVTVSS
notes: as for B1
B9: CAR comprising scFv-J3 (SEQ ID NO: 51) (other)
chain: B8 chain with E17K, S30T, L37I, L58V, I131V
notes: as for B1
B10: CAR comprising scFv-J5 (SEQ ID NO: 53) (other)
chain: DIVLTQSPASLAVSLGERATISCRASESVSILGSHYLAWYQQKPGQPPKLLIYLASNLQTGVPARFSGSGSGTDFTLTISSLEAEDVAVYYCQQSRTIPRTFGQGTKLEIKGSTSGSGKPGSGEGSTKGQIQLVQSGAEVKKPGESVKISCKASGYTFTDYSINWVRQAPGQGLKWMGWINTETREPAYAYDFRGRFAFSLDTSASTAYLQISSLKAEDTAVYFCALDYSYAMDYWGQGTLVTVSS
notes: as for B1
B11: CAR comprising scFv-J1 (SEQ ID NO: 49) (other)
chain: DIVMTQSPDSLSVSLGERATINCRASESVTILGSHLIHWYQQKPGQPPKLLIQLASNVQTGVPDRFSGSGSGTDFTLTISSLQAEDVAVYYCLQSRTIPRTFGGGTKVEIKGSTSGSGKPGSGEGSTKGQIQLVQSGAEVKKPGASVKISCKASGYTFTDYSINWVRQAPGQGLEWMGWINTETREPAYAYDFRGRVTMTRDTSASTAYLQISSLKAEDTAVYFCALDYSYAMDYWGQGSLVTVSS
notes: as for B1
B12: CAR comprising scFv-J4 (SEQ ID NO: 52) (other)
chain: B11 chain with A145E, E175K, V197F, T198A, M199F, T200S, R201L, S240T
notes: as for B1
B13: CAR comprising scFv-Y31 (SEQ ID NO: 56) (other)
chain: B1 chain with S160D, D162S, R167K
notes: as for B1
B14: CAR comprising scFv-Y34 (SEQ ID NO: 59) (other)
chain: B1 chain with Q135E, P138A, L140V, I149V, A152K, S160D, D162S, T198A, F199I, D202E
notes: as for B1
B15: CAR comprising scFv-Y33 (SEQ ID NO: 58) (other)
chain: B1 chain with Q135E, P138A, L140V, S160D, D162S, R167K, A201L
notes: as for B1
B16: CAR comprising scFv-Yi1 (SEQ ID NO: 54) (other)
chain: B1 chain with E85D, Q104G, V108L, S160D, D162S, R167K, A201L
notes: CAR on mRNA-electroporated human CD8+ T cells; not shown: rest of the CAR (hinge, transmembrane, cytoplasmic domains) not specified for this construct
B17: CAR comprising scFv-Yi2 (SEQ ID NO: 55) (other)
chain: DIQLTQSPSSLSASVGDRVTITCRASQSVTILGSHLIHWYQQKPGKAPKLLIQLASNVQTGVPSRFSGSGSGTDFTLTISSLQPEDVATYYCLQSRTIPRTFGQGTKLEIKGSTSGSGKPGSGEGSTKGQVQLVQSGGGLVQPGRSVKLSCAASGYTFTDYSINWVRQAPGKGLEWVGWINTETREPAYAYDFRGRFTISRDTSKNTAYLQMNSLRAEDTAVYYCARDYSYAMDYWGQGTLVTVSS
notes: as for B1

Molecular target: T1, phycoerythrin (PE)-conjugated BCMA (Recombinant Human TNFRSF17 protein, Fc/His-tagged, R-PE labeled); Creative … (human, UniProt Q02223 1-54, R-PE labeled)
T1 construct: Bought reagent; also called BCMA-PE; not shown: Fc/His tag of the bought reagent
T1 sequence: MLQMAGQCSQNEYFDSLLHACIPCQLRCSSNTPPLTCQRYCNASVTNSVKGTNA
Assay: flow cytometry; CAR T cells stained with BCMA-PE, 3 days after electroporation
Protocol: (§1) CAR T cells obtained from the above-described process were tested for viability, CAR protein expression, BCMA binding, and cytotoxicity, i.e., the ability to kill BCMA+ myeloma (tumor) cells. Viability, CAR expression, and BCMA binding were determined by flow cytometry on a GUAVA® […]® 12HT Flow cytometer (EMD Millipore). To test viability, a sample of the CAR T cells was mixed with propidium iodide and run on the flow cytometer with electronic gating on fluorescence in the near infrared channel. To test CAR protein expression and BCMA binding, a sample of the CAR T cells was incubated with 0.4 ug/mL of phycoerythrin (PE)-conjugated BCMA (Recombinant Human TNFRSF17 protein, Fc/His-tagged, R-PE labeled; Creative Biomart, Shirley, N.Y.). CAR expression was assessed on the flow cytometer with electronic gating on fluorescence in the yellow channel to detect presence or absence of emission from BCMA-PE on CAR-positive and CAR-negative cells. BCMA binding was determined by measuring the intensity of fluorescence in the yellow channel to determine the relative quantity of BCMA-PE bound to labelled CAR-positive cells. For the viability, expression, and BCMA binding assays, CD8+ T cells electroporated without mRNA (CAR-negative T Cells) were tested as a parallel control.
For each of the mRNA constructs, CAR T cells were prepared by transfection into human CD8+ cells, as described in Example 1. The CAR T cells made from each mRNA construct were then tested 3 days after electroporation for BCMA binding and tumor killing, as described in Example 1.

Binder | BCMA Binding (arbitrary units)
B1 | 189
B2 | 269
B3 | 496
B4 | 310
B5 | 439
B6 | 173

Molecular target: T2, human BCMA on cells (human, UniProt Q02223 1-184)
T2 sequence: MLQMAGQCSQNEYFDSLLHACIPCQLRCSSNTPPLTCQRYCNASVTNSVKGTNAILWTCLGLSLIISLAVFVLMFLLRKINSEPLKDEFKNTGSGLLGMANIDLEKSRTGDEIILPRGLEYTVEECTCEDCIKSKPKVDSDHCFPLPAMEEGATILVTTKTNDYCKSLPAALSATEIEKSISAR
Assay: cell-based or functional assay

Binder | Killing (% killed), Effector:target ratio of 1:2 [%]
B1 | 3
B2 | 81
B3 | 26
B4 | 0
B5 | 78
B6 | 86

Molecular target: T1, phycoerythrin (PE)-conjugated BCMA …
Assay: flow cytometry; CAR T cells stained with BCMA-PE, 3 days after electroporation
Remark: another data set of the same source
Protocol: as §1
Numerous CAR-encoding mRNA constructs were prepared using the mRNA construct of SEQ ID: 29 as a starting point (which encodes a CAR of sequence SEQ ID: 19 and comprises the scFv of sequence SEQ ID: 48). These constructs encoded the same or substantially the same amino acid residues in the scFv complementary-determining regions (CDRs) but varied with respect to the amino acid residues in the scFv framework regions. In making these variations, the experimenter's intent was to humanize the scFv framework regions without reducing BCMA-binding and tumor-killing properties of CAR T cells that express the CAR. For each of the mRNA constructs, CAR T cells were prepared by transfection into human CD8+ cells, substantially as described in Example 1. The CAR T cells made from each mRNA construct were then tested 3 days after electroporation for BCMA binding and/or tumor killing, as substantially described in Example 1.

Binder | BCMA Binding | BCMA Binding (relative to SEQ ID: 48) | BCMA Binding (relative to SEQ ID: 54)
B7 | 34 relative (SEQ ID: 48 = 100) | – | –
B8 | – | 51 relative to SEQ ID: 48 = 100 | –
B9 | – | 54 relative to SEQ ID: 48 = 100 | –
B10 | – | 103 relative to SEQ ID: 48 = 100 | –
B11 | – | 76 relative to SEQ ID: 48 = 100 | –
B12 | – | 82 relative to SEQ ID: 48 = 100 | –
B13 | – | – | 58 relative to SEQ ID: 54 = 100
B14 | – | – | 79 relative to SEQ ID: 54 = 100
B15 | – | – | 40 relative to SEQ ID: 54 = 100
B16 | – | 141 relative to SEQ ID: 48 = 100 | 100 relative to SEQ ID: 54 = 100
B17 | – | 12 relative to SEQ ID: 48 = 100 | –
